Columns and labels:
Experiment in all cases: SPR (Biacore)
[1] = target: BC 247-C3 x CD3
[2] = target: BC 244-C6 x CD3
[3] = target: BCMA-107 x CD3

B1: Human BCMA (receptor)
chain: MLQMAGQCSQNEYFDSLLHACIPCQLRCSSNTPPLTCQRYCNASVTNSVKGTNAILWTCLGLSLIISLAVFVLMFLLRKINSEPLKDEFKNTGSGLLGMANIDLEKSRTGDEIILPRGLEYTVEECTCEDCIKSKPKVDSDHCFPLPAMEEGATILVTTKTNDYCKSLPAALSATEIEKSISAR
Kd [1]: 0.4 nM | Kd [2]: 0.3 nM | Kd [3]: 34.2 nM

Reference: patent US20130156770A1 (published 2013)
